Values of other authors, collected in publication PMC11190312.

Columns and labels:
[1] = target: nucleoprotein (SARS-CoV-1) (UniProt P59595); conditions: cited from earlier work
[2] = target: nucleoprotein (SARS-CoV-2) (UniProt P0DTC9); conditions: cited from earlier work

For MASP-2 (from UniProt O00187), the Kd [1] is listed as 268 nM and the Kd [2] is listed as 514 nM.
